Measurements taken from article PMC8891041.

Molecular target: human parathyroid hormone type 1 receptor (hPTHR) (human) (UniProt Q03431)
Assay: radioligand binding

UniProt Q03431, sequence (Q03431 27-593): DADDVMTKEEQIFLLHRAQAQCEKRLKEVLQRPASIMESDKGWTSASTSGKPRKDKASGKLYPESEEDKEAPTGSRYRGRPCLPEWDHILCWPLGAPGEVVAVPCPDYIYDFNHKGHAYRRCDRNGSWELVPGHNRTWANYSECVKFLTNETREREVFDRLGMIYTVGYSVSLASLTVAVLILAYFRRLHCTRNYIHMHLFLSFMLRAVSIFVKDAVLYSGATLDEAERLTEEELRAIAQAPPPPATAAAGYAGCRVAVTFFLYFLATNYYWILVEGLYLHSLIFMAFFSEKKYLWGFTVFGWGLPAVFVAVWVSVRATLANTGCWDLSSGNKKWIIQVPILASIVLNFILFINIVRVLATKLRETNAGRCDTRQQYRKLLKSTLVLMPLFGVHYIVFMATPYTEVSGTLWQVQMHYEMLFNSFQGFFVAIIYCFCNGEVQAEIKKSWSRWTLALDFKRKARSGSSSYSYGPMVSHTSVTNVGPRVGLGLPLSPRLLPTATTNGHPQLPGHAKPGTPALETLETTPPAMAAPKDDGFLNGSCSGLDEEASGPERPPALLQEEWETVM

Row | pKi | Substance
1 | 10.8 | M-PTH(1-15) (peptide)
2 | 8.26 | PTH(1-34) (peptide)
